Earlier results as cited in PMC4072394.

Columns and labels:
Glu169 = assay: UV-vis; conditions: detergent-solubilised, unphotolysed (ground) state with protonated Schiff base
Asp299 = assay: UV-vis; conditions: detergent-solubilised, unphotolysed (ground) state with protonated Schiff base

Substance: Channelrhodopsin-1 (CaChR1) (Chlamydomonas augustae)
- pKa (Glu169): near 9
- pKa (Asp299): near 5
